Here are results for 1 substance from US20190389955A1.

The target in this test is human FLT3/FLK2 receptor protein (human) (UniProt P36888). Put plainly: flow cytometry on SP2/0 cells expressing human FLT3/FLK2; same table: unstained SP2/0 clone 3 6063, secondary Ab 9522.
Sequence of human FLT3/FLK2 receptor protein (human) (P36888 27-993): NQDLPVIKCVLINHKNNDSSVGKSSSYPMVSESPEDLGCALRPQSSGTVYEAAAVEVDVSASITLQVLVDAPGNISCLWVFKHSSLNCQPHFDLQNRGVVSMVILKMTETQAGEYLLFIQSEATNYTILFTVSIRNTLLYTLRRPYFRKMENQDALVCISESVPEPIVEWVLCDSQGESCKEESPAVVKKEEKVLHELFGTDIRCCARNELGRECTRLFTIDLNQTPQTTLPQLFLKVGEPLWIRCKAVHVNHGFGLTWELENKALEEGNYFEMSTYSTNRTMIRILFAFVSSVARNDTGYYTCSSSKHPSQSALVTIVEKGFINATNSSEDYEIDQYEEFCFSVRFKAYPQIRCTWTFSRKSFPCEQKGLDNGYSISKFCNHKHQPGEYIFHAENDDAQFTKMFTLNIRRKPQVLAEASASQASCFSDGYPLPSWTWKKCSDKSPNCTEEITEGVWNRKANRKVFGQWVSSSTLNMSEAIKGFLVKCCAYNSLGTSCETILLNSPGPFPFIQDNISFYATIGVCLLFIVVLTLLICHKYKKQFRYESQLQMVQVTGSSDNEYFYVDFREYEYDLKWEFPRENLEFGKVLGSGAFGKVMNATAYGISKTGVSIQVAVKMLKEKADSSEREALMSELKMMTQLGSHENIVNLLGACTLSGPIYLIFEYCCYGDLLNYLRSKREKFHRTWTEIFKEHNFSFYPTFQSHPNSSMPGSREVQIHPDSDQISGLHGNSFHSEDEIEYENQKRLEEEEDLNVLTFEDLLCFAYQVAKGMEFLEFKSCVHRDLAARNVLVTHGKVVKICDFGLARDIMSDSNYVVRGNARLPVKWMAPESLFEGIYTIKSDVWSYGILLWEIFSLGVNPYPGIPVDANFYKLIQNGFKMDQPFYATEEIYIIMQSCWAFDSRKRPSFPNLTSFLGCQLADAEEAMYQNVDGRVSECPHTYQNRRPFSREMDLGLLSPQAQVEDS

In the case of ISOTYPE CTR (antibody), the MFI came out at 11500.
